13 molecules from patent US20240269235A1 (Gilead, published 2024) can be followed below.

To fix the notation:
T1: trimeric murine IL-2 receptor (IL-2Rα, IL-2Rβ, and IL-2Rγ) on CTLL-2 cells (murine, UniProt P01590 22-268; P16297 27-539; P34902 23-369)
T1 sequence (looked up) 1: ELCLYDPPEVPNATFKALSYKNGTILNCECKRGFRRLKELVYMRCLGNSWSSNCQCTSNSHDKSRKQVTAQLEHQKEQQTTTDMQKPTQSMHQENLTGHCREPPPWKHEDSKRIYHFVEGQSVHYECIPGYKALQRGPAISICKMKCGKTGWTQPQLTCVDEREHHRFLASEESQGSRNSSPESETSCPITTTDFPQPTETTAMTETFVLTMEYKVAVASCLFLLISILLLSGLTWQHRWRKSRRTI
T1 sequence (looked up) 2: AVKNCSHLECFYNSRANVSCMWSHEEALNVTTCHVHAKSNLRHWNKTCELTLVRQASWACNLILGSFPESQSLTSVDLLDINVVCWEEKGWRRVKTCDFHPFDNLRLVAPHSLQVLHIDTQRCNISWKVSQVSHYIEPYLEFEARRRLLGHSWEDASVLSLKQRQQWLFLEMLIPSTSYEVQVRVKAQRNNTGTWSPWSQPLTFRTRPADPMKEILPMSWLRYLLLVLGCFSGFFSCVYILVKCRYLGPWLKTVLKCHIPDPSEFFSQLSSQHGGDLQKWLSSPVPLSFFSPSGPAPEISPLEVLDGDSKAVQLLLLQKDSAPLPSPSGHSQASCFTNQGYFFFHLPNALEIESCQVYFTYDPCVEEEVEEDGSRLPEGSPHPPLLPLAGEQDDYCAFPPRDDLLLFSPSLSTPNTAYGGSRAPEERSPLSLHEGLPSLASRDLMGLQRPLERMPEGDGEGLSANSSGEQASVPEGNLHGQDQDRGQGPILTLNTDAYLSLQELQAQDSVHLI
T1 sequence (looked up) 3: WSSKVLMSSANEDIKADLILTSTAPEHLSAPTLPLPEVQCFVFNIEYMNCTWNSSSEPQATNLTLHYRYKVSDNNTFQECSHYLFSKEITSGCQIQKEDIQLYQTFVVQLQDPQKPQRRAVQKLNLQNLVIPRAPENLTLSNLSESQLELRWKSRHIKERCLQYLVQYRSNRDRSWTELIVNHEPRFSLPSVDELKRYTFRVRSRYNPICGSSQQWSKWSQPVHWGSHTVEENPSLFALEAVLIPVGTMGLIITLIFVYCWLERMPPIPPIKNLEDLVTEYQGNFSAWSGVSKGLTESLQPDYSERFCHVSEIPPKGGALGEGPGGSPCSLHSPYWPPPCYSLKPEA

T2: human IL-2Rα on Treg cells (CD3+, CD4+, CD25hi, FoxP3+) of human PBMC (human, UniProt P01589 22-272)
T2 sequence (looked up): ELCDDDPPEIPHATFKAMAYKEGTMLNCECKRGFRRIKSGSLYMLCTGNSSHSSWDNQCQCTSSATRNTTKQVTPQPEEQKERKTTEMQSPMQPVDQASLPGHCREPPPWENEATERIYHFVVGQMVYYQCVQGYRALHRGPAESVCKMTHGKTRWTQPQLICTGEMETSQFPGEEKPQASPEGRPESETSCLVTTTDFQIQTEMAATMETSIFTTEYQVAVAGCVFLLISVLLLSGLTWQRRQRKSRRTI

T3: IL-2Rα (recombinant IL-2 receptor α, R&D Systems Cat #: 223-2A/CF), biotinylated (human, UniProt P01589 22-213, limits assumed, biotinylated using sulfo-NHS-LC-LC-Biotin)
T3 construct: Bought reagent; also used here as the IL-2Rα partner of the in-silico analysis of PDB 2B5I (another construct); also called IL-2RA; CD25
T3 sequence (looked up): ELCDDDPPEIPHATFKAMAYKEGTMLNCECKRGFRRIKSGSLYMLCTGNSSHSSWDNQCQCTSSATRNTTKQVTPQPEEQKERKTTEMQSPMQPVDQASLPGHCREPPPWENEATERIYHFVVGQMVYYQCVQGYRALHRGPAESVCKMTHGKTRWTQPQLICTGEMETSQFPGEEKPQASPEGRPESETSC

T4: IL-2Rβ (recombinant IL-2 receptor β, R&D Systems Cat #:224-2B-025/CF), biotinylated (UniProt P14784 27-239, limits assumed, biotinylated using sulfo-NHS-LC-LC-Biotin)
T4 construct: Bought reagent; also called IL-2RB; CD122
T4 sequence (looked up): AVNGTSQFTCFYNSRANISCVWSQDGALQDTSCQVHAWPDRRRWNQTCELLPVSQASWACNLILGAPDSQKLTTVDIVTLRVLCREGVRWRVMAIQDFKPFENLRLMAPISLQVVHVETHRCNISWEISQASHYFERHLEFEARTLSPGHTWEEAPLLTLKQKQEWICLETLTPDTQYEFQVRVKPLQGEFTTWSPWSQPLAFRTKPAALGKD

B1: Fc-IL-2v heterodimer 82.46 (hIL-2v_Δ1-5_R38A_C125S) (Fc fusion)
chain 1: ESKYGPPCPPCPAPEAAGGPSVFLFPPKPKDTLMISRTPEVTCVVVDVSQEDPEVQFNWYVDGVEVHNAKTKPREEQFNSTYRVVSVLTVLHQDWLNGKEYKCKVSNKGLPSSIEKTISKAKGQPREPQVYTLPPSQEEMTKNQVSLWCLVKGFYPSDIAVEWESNGQPENNYKTTPPVLDSDGSFFLYSRLTVDKSRWQEGNVFSCSVMHEALHNHYTQKSLSLSLGGGGGSGGGGSGGGGSGGGGSSTKKTQLQLEHLLLDLQMILNGINNYKNPKLTAMLTFKFYMPKKATELKHLQCLEEELKPLEEVLNLAQSKNFHLRPRDLISNINVIVLELKGSETTFMCEYADETATIVEFLNRWITFSQSIISTLT
chain 2: ESKYGPPCPPCPAPEAAGGPSVFLFPPKPKDTLMISRTPEVTCVVVDVSQEDPEVQFNWYVDGVEVHNAKTKPREEQFNSTYRVVSVLTVLHQDWLNGKEYKCKVSNKGLPSSIEKTISKAKGQPREPQVYTLPPSQEEMTKNQVSLSCAVKGFYPSDIAVEWESNGQPENNYKTTPPVLDSDGSFFLVSRLTVDKSRWQEGNVFSCSVMHEALHNRFTQKSLSLSLGK
notes: hIgG4 knob-in-hole Fc heterodimer, one IL-2v on the knob chain
B2: Fc-IL-2v heterodimer 84.46 (hIL-2v_Δ1-5_T41A_C125S) (Fc fusion)
chain 1: B1 chain 1 with A281R, T284A
chain 2: B1 chain 2
notes: as for B1
B3: Fc-IL-2v heterodimer 88.46 (hIL-2v_Δ1-5_Y45A_C125S) (Fc fusion)
chain 1: B1 chain 1 with A281R, Y288A
chain 2: B1 chain 2
notes: as for B1
B4: Fc-IL-2v heterodimer 92.46 (hIL-2v_Δ1-5_L72G_C125S) (Fc fusion)
chain 1: B1 chain 1 with A281R, L315G
chain 2: B1 chain 2
notes: as for B1
B5: Fc-IL-2v heterodimer 85.46 (hIL-2v_Δ1-5_F42G_C125S) (Fc fusion)
chain 1: B1 chain 1 with A281R, F285G
chain 2: B1 chain 2
notes: as for B1
B6: Fc-IL-2v heterodimer 93.46 (hIL-2v_Δ1-5_Q74G_C125S) (Fc fusion)
chain 1: B1 chain 1 with A281R, Q317G
chain 2: B1 chain 2
notes: as for B1
B7: Fc-IL-2v heterodimer 91.46 (hIL-2v_Δ1-5_E68A_C125S) (Fc fusion)
chain 1: B1 chain 1 with A281R, E311A
chain 2: B1 chain 2
notes: as for B1
B8: Fc-IL-2v heterodimer 109.46 (hIL-2v_Δ1-5_F42A_Y45G_E61A_C125S) (Fc fusion)
chain 1: B1 chain 1 with A281R, F285A, Y288G, E304A
chain 2: B1 chain 2
notes: as for B1
B9: Fc-IL-2v heterodimer 111.46 (hIL-2v_Δ1-5_R38G_F42A_E61A_C125S) (Fc fusion)
chain 1: B1 chain 1 with A281G, F285A, E304A
chain 2: B1 chain 2
notes: as for B1
B10: Fc-IL-2v heterodimer 116.46 (hIL-2v_Δ1-5_R38G_E61A_E62A_C125S) (Fc fusion)
chain 1: B1 chain 1 with A281G, E304A, E305A
chain 2: B1 chain 2
notes: as for B1
B11: Fc-IL-2v heterodimer 115.46 (hIL-2v_Δ1-5_F42A_E61A_E62A_C125S) (Fc fusion)
chain 1: B1 chain 1 with A281R, F285A, E304A, E305A
chain 2: B1 chain 2
notes: as for B1
B12: Fc-IL-2v heterodimer 112.46 (hIL-2v_Δ1-5_R38G_Y45G_E62A_C125S) (Fc fusion)
chain 1: B1 chain 1 with A281G, Y288G, E305A
chain 2: B1 chain 2
notes: as for B1
B13: Fc-IL-2v heterodimer 110.46 (hIL-2v_Δ1-5_R38G_Y45G_E61A_C125S) (Fc fusion)
chain 1: B1 chain 1 with A281G, Y288G, E304A
chain 2: B1 chain 2
notes: as for B1

As usually defined, the Kd is the concentration at which binding is half-saturated.

Changes are numbered by the printed parent chain.

The target of one test is T1, trimeric murine IL-2 receptor (IL-2Rα, …). Briefly: cell-based or functional assay.
Consider B1, for which the “STAT5 activation of CTLL-2 cells, EC50” value came to 0.01 nM.
Still for that read-out and setting: the value for B2 was 0.03 nM; that for B3 was 0.1 nM; that for B4 was 0.7 nM.
B5: the “STAT5 activation of CTLL-2 cells, EC50” value stood at 5.5 nM.
Turning to B6, the “STAT5 activation of CTLL-2 cells, EC50” value worked out at 0.002 nM.
Regarding B7, the “STAT5 activation of CTLL-2 cells, EC50” value amounted to 0.001 nM.

In a further test the target is T2, human IL-2Rα on Treg cells (CD3+, CD4+, …). Briefly: cell-based or functional assay.
For B1, the “Treg EC50, STAT5 activation (PBMC STAT5 assay)” value (“Treg EC50, STAT5 activation” below) is under 0.001 nM.
On to B2, for which the “Treg EC50, STAT5 activation” value is under 0.001 nM.
Regarding B3, the “Treg EC50, STAT5 activation” value was under 0.001 nM.
Still for that read-out and setting: as for B4, the figure is under 0.001 nM; as for B5, 0.06 nM; as for B6, under 0.001 nM.
On the same count and under the same terms, as for B7, the figure is under 0.001 nM.

For a further test, the target named is T1, trimeric murine IL-2 receptor (IL-2Rα, …). Briefly: cell-based or functional assay. This is another data set of the same source.
B8: the “STAT5 activation of CTLL-2 cells, EC50” value amounted to 36.2 nM.
For the molecule B9, the “STAT5 activation of CTLL-2 cells, EC50” value amounted to 11 nM.
As to B10, the “STAT5 activation of CTLL-2 cells, EC50” value stood at 16.3 nM.
On the same count and under the same terms, the value for B11 was 67.1 nM; that for B12 was 13.1 nM; that for B13 was 1.5 nM.

In the next test the target is T5, IL-2Rβγ heterodimer, custom biotinylated Fc fusion protein (human IL-2Rβ 27-240-Fc-FLAG / human IL-2Rγ … (human, site-specific biotinylation at the AviTag)).
T5 construct: Extracellular regions fused to IgG1 knob-in-hole Fc subunits with tags; also called IL-2 receptor βγ heterodimer; Fc-IL-2Rβγ
T5 sequence (chain, as listed by the source limits assumed): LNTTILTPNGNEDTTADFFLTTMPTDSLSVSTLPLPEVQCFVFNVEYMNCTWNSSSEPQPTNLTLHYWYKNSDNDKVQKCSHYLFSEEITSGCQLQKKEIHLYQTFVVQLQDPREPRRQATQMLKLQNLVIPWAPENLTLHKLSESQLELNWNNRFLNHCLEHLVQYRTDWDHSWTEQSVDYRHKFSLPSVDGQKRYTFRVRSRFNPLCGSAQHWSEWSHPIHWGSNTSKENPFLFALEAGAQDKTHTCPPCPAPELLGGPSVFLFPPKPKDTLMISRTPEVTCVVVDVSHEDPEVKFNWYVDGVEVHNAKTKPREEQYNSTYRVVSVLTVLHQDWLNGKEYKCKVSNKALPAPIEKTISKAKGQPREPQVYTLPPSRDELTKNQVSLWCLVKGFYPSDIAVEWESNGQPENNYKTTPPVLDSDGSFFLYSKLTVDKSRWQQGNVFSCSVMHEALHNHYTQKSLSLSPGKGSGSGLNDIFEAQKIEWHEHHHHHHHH
As to the kind of experiment: SPR (Biacore), CM4 chip, biotinylated receptor on neutravidin. As for the experimental part:
Fc-IL-2 variant binding data was collected on a Biacore platform using a CM4 chip. Neutravidin was immobilized using standard amine coupling methods and used to capture biotinylated receptors. The source, preparation and immobilization of biotinylated IL-2Rα and IL-2Rβγ heterodimer was as described in Example 4. Proleukin was used as a comparator. Fc-IL-2 variants and Proleukin were injected at various concentrations over these surfaces. Kinetic data obtained from these injections was used to extract kₒₙ and koff to calculate KD (KD=Koff/kₒₙ).
(In SPR one partner is held on a chip, and binding of the other changes the refractive index at the surface.)
In turn, B8 gave a Kd of 0.056 nM.
B9: the Kd was 0.069 nM.
Consider B10, for which the Kd came out at 0.115 nM.
Consider B11, for which the Kd turned out to be 0.093 nM.
B12 had a Kd of 0.066 nM.
Regarding B13, binding was put at a Kd of 0.059 nM.

The next test addresses T3, IL-2Rα (recombinant IL-2 receptor α, …). As to the kind of experiment: SPR (Biacore), C1 or CM5 chip, biotinylated receptor on neutravidin. An excerpt:
(§1) Data for binding of Fc-IL-2 variant fusion proteins to IL-2Rα, IL-2Rβ and IL-2Rβγ heterodimer were collected on a Biacore platform using either C1 or CM5 chips. Neutravidin was immobilized using standard amine coupling methods and used to capture biotinylated receptors. Commercially sourced IL-2Rα (R&D Systems Cat #: 223-2A/CF) and IL-2Rβ receptors (R&D Systems Cat #:224-2B-025/CF) were biotinylated using sulfo-NHS-LC-LC-Biotin, desalted, and then captured on the neutravidin surfaces. […] Distinct purification tags were appended to the C-terminus of each chain. A FLAG epitope tag ([…]; SEQ ID NO: 257) was added at the C-terminus of IL-2Rβ subunit, followed by C-terminal Hiss tag ([…]; SEQ ID NO: 258). An AviTag™ ([…]; SEQ ID NO: 259) motif on the IL-2Rγ subunit allowed for site-specific biotinylation of the heterodimer.
(§2) Fc IL 2 fusion protein variants, Fc protein, and Proleukin were injected at various concentrations over these surfaces. Kinetic data obtained from these injections was used to extract kₒₙ and koff to calculate KD (KD=koff/kₒₙ). Experiments were run at 25° C. in HBS-EP+ running buffer (10 mM HEPES, 150 mM NaCl, 3 mM EDTA, 0.05% Tween20, pH 7.4 with 0.1 mg/ml BSA). Data shown in Table 5 for Fc IL-2 fusion protein variants binding to the indicated IL-2R surfaces were derived from the global fitting of data obtained from 2-5 independent surfaces.
As for B1, the Kd was 108 nM.
On to B2, for which the Kd was found to be 119 nM.
As to B3, the Kd stood at 120 nM.
With B4, the Kd was found to be 503 nM.
Consider B5, for which the Kd was found to be 4900 nM.
B6: the Kd was determined as 21 nM.
With B7, the Kd amounted to 32 nM.

The next test deals with T4, IL-2Rβ (recombinant IL-2 receptor β, …). The description is as above.
From the text: as §1, §2
Consider B1, for which the Kd stood at 8200 nM.
For the molecule B2, the Kd turned out to be 7000 nM.
As for B3, the Kd came to 8000 nM.
For B4, the Kd stood at 8000 nM.
Same read-out and setting: the value for B5 was 7500 nM; that for B6 was 8200 nM; that for B7 was 5900 nM.
